These results are taken from patent US20140134690A1, “MICROBES AND METHODS FOR PRODUCING 1-PROPANOL” (University of Georgia Research Foundation, Inc., priority 2012, published 2014).

Holding throughout (test): cells, lysate or membranes named
Substrate in data set [1]: O=C(CO)COP(=O)(O)O
In kind it is biochemical, C. acetobutylicum. To be noted: other: substrate dihydroxyacetone phosphate 0.15-1.5 mM, crude extract, imidazole-HCl pH 7.0, 30° C. The source says:
(§1) 1,2-Propanediol pathway branches from glycolysis and competes for the intermediate dihydroxyacetone phosphate, with the glycolytic pathway. […] We amplified the mgsA genes from the microorganisms: C. acetobutylicum (ATCC#824), B. subtilis 168, C. difficile R20291, E. coli MG1655, T. thermophilus HB27, K. pneumoniae MGH78578, P. fluorescens Pf-5, and R. eutropha H16 respectively. These genes were cloned and expressed in wild type E. coli BW25113 using eight plasmids pRJ1-pRJ8. Each gene was under the control of the IPTG-inducible pLlacO1 promoter. Using dihydroxyacetone-phosphate as the substrate, we successfully detected the functional expression of all mgsA genes in vitro, where the specific activities varied from 0.0052 U/mg to 0.1242 U/mg (Table 1). […] Without the over-expression of mgsA gene, we also detected the native expression of E. coli mgsA, which gave a specific activity of only 0.0008 U/mg, much lower than that of any over-expression.
(§2) Using the primers listed in Table 5, the mgsA genes were PCR amplified from the genomic DNA of C. acetobutylicum (ATCC824), B. subtilis 168, Clostridium difficile R20291, E. coli MG1655, Thermus thermophilus HB27, K. pneumoniae MGH78578, Pseudomonas fluorescens Pf-5, and Ralstonia eutropha H16 respectively. […]
(§3) The assay was carried out using a two-step procedure. […] The samples were diluted 10 times before measuring the absorbance at 550 nm.

Substrate in data set [2]: O=C(CO)COP(=O)(O)O
In kind it is biochemical, B. subtilis. The note with it: other: substrate dihydroxyacetone phosphate 0.15-1.5 mM, crude extract, imidazole-HCl pH 7.0, 30° C.
From the text: as §1, §2, §3

Substrate in data set [3]: CC(=O)C=O
It is filed as biochemical, E. coli. The note with it: other: substrate methylglyoxal 20-120 mM, 0.25 mM NADH, crude extract, imidazole-HCl pH 7.0, 37° C. The method, then: When the gene is over-expressed by pRJ10, the specific activity was determined to be 1.62±0.012 U/mg.

Substrate in data set [4]: O=C(CO)COP(=O)(O)O
It is filed as biochemical, P. fluorescens. The note with it: other: substrate dihydroxyacetone phosphate 0.15-1.5 mM, crude extract, imidazole-HCl pH 7.0, 30° C.
From the text: as §1, §2, §3

Substrate in data set [5]: O=C(CO)COP(=O)(O)O
It is filed as biochemical, T. thermophilus. The note with it: other: substrate dihydroxyacetone phosphate 0.15-1.5 mM, crude extract, imidazole-HCl pH 7.0, 30° C.
From the text: as §1, §2, §3

Substrate in data set [6]: O=C(CO)COP(=O)(O)O
In kind it is biochemical, R. eutropha. The note with it: other: substrate dihydroxyacetone phosphate 0.15-1.5 mM, crude extract, imidazole-HCl pH 7.0, 30° C.
From the text: as §1, §2, §3

In general, Km refers to the concentration of substrate that gives half-maximal velocity.

B1: Clostridium acetobutylicum (ATCC 824) methylglyoxal synthase (mgsA), wild type (Clostridium acetobutylicum ATCC 824) (protein)
chain: MNSKKKIALVAHDNRKKALISWCEANSEVLSNHSLCGTGTTAKLIKEATGLEVFPYKSGPMGGDQQIGAAIVNEDIDFMIFFWDPLTAQPHDPDVKALLRISVLYDIPIAMNESTAEFLIKSPIMKEQHERHIIDYYQKIRKDNF
On to B1, for which, in data set [1], the Michaelis-Menten constant (Km) was determined as 776 ± 5 µM.

B2: Bacillus subtilis 168 methylglyoxal synthase (mgsA), wild type (Bacillus subtilis subsp. subtilis str. 168) (protein)
chain: MKIALIAHDKKKQDMVQFTTAYRDILKNHDLYATGTTGLKIHEATGLQIERFQSGPLGGDQQIGALIAANALDLVIFLRDPLTAQPHEPDVSALIRLCDVYSIPLATNMGTAEILVRTLDEGVFEFRDLLRGEEPNV
Take B2: the Km in data set [2] was determined as 473 ± 70 µM.

B3: E. coli MG1655 methylglyoxal reductase (ydjG), wild type (Escherichia coli K-12) (protein)
chain: MKKIPLGTTDITLSRMGLGTWAIGGGPAWNGDLDRQICIDTILEAHRCGINLIDTAPGYNFGNSEVIVGQALKKLPREQVVVETKCGIVWERKGSLFNKVGDRQLYKNLSPESIREEVAASLQRLGIDYIDIYMTHWQSVPPFFTPIAETVAVLNELKSEGKIRAIGAANVDADHIREYLQYGELDIIQAKYSILDRAMENELLPLCRDNGIVVQVYSPLEQGLLTGTITRDYVPGGARANKVWFQRENMLKVIDMLEQWQPLCARYQCTIPTLALAWILKQSDLISILSGATAPEQVRENVAALNINLSDADATLMREMAEALER
In the case of B3, the Michaelis constant (Km) in data set [3] is 3310 ± 20 µM.

B4: Pseudomonas fluorescens Pf-5 methylglyoxal synthase (mgsA), wild type (Pseudomonas protegens Pf-5) (protein)
chain: MIGISFTHKTMAARKRIALVAHDHCKAFLLEWAGRQKARLAEHELVATGTTGLLLSKHLGLPVESMISGPLGGDQQLGAQIAEQRVDLLVFFWDPFEPQPHDPDIKALLRVAAVWNIPVACNECSADYLLSSPLMNQAHEHRIPDYQAYLAGRG
Turning to B4, in data set [4], the Km worked out at 1560 ± 20 µM.

B5: Thermus thermophilus HB27 methylglyoxal synthase (mgsA), wild type (Thermus thermophilus HB27) (protein)
chain: MKALALIAHDAKKDEMVAFCLRHKDVLARYPLLATGTTGARIQEATGLAVERVLSGPLGGDLQIGARVAEGKVLAVVFLQDPLTAKPHEPDVQALMRVCNVHGVPLATNLVAAEALIAWIRKGTPQ
Take B5: in data set [5], the Michaelis-Menten constant (Km) was found to be 2118 ± 70 µM.

B6: Ralstonia eutropha H16 methylglyoxal synthase (mgsA), wild type (Cupriavidus necator H16) (protein)
chain: MTRPRIALIAHDHKKDDIVAFATRHRAFLSQCELLATGTTGGRLIDEVGLEVTRMLSGPWGGDLQIGAQLAVGLVRAVVFLRDPMTPQPHEPDINALVRACDVHNVPCATNVATAELLIAGLAREVDEAAAS
As to B6, the Km in data set [6] turned out to be 700 ± 30 µM.
